Consider eight molecules from US20200121814A1 (GENERAL HOSPITAL, published 2020).

Assay [1] deals with HER3 on cells (MDA-MB-453, moderate HER3; HCC-1954, low HER3) (human) (UniProt P21860). In words: cell binding on MDA-MB-453 cells (moderate HER3), 250 nM peptide, streptavidin-HRP and ABTS.
The target of assay [2] is HER3 extracellular domain (ECD) (R&D Systems) (human) (UniProt P21860). In words: ELISA of purified phage on adsorbed HER3 ECD, anti-M13-HRP and ABTS. In general terms: In an ELISA, binding on a coated surface is turned into a signal by an enzyme label.
The target in assay [3] is T1, HER3 extracellular domain (ECD) (R&D Systems) (human, UniProt P21860 20-643).
T1 construct: extracellular domain; Adsorbed to Maxisorp plates in the ELISAs; also called HER3 ECD; ERBB3
In words: phage binding to HER3, normalized to parent phage.

Assay [4] concerns the target bovine serum albumin (bovine) (UniProt P02769). The experiment in a line: peptide ELISA on immobilized protein, 250 nM peptide, streptavidin-HRP and ABTS.
Assay [5] concerns the target T2, EGFR extracellular domain (UniProt P00533 25-645, limits assumed).
T2 construct: extracellular domain; Immobilized on plate for peptide ELISA
The experiment in a line: peptide ELISA on immobilized ECD, 250 nM peptide, streptavidin-HRP and ABTS.

The target of assay [6] is T3, HER2 extracellular domain (UniProt P04626 23-652, limits assumed).
T3 construct: extracellular domain; Immobilized on plate for peptide ELISA; also called ErbB2; neu
The assay is described as above.

Assay [7] has as its target T1, HER3 extracellular domain (ECD) (R&D …). Described as above.

Bridge positions count the residues as written; N and C are the ends. Ends that are not written are not given here. * marks the point of attachment. Biotin = O=C1N[C@H]2[C@H](CS[C@H]2CCCCC(=O)*)N1 Some results are limits rather than exact numbers.

T1 sequence (P21860 20-643): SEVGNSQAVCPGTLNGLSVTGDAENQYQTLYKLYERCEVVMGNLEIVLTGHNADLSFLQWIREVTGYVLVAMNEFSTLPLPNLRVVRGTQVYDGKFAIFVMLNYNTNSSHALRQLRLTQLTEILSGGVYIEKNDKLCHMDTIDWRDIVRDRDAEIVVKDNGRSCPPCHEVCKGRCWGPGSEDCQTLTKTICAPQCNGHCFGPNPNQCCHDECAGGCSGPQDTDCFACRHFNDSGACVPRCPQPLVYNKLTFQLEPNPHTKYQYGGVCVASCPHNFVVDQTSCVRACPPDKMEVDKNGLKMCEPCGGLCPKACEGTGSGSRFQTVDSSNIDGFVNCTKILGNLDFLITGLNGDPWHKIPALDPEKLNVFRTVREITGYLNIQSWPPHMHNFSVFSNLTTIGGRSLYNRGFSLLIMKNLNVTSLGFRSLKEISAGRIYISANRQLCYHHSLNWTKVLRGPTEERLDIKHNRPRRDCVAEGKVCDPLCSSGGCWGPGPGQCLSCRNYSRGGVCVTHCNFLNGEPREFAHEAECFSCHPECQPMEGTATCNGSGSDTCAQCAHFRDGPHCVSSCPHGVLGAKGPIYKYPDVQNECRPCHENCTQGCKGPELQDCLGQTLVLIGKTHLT
Chain of bovine serum albumin (bovine) (P02769 25-607 limits assumed): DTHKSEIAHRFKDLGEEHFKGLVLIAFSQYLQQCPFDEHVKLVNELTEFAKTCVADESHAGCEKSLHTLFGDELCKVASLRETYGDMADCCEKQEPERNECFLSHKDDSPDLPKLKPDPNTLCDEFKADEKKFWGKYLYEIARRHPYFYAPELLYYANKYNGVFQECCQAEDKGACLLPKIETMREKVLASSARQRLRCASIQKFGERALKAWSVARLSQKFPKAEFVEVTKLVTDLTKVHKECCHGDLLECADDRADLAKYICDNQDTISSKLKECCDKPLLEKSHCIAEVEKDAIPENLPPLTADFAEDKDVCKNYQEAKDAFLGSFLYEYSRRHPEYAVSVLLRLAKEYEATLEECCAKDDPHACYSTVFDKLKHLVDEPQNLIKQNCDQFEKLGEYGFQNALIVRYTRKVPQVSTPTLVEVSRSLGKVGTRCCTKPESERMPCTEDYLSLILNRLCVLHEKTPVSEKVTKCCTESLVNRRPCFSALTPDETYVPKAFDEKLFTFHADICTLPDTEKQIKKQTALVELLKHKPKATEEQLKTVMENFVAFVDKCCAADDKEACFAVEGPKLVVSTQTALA
Chain of HER3 on cells (MDA-MB-453, moderate HER3; HCC-1954, low HER3) (human) (P21860 20-1342): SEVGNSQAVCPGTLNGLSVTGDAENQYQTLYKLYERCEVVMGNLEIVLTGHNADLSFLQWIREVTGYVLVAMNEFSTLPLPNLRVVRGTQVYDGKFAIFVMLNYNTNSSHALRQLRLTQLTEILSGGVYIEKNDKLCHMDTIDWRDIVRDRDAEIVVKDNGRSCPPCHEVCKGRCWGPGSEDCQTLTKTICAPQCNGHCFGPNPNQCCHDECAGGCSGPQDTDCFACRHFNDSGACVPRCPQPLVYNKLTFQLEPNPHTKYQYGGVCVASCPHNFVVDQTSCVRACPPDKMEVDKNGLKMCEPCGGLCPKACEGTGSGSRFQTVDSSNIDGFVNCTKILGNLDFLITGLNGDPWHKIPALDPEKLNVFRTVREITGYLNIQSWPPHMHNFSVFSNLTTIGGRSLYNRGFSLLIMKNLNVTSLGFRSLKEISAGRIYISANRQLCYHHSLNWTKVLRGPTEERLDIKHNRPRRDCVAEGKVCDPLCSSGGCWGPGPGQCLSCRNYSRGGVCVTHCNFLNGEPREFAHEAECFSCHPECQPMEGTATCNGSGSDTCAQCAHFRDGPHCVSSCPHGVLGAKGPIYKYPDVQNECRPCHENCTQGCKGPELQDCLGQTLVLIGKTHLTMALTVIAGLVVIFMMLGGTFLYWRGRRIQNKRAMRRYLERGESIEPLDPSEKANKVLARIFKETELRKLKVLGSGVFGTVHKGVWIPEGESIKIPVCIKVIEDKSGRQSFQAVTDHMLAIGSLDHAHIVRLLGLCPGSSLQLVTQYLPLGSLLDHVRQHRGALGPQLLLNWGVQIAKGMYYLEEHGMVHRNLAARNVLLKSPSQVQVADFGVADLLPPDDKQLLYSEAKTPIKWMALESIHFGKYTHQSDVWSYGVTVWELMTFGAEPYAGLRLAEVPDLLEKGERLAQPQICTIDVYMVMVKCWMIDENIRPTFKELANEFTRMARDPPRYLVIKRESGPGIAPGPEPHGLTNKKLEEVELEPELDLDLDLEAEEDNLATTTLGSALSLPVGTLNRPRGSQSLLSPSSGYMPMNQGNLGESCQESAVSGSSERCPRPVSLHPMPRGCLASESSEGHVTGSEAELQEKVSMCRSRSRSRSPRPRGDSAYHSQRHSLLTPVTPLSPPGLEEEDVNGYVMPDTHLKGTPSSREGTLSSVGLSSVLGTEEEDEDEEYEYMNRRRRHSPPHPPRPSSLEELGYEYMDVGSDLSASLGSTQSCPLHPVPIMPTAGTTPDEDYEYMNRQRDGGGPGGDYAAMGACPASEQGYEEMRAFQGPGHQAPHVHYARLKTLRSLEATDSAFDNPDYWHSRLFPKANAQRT
Chain of HER3 extracellular domain (ECD) (R&D Systems) (human) (P21860 20-643): as the sequence (P21860 20-643) above

In turn, control peptide showed an absorbance (405 nm) in assay [1] of 0.12 absorbance.

With control phage bearing no peptide, the absorbance (background subtracted, 405 nm) in assay [2] came to 0.007 absorbance.

For CAPTKFRSC (peptide, not shown: large carriers) [phage M1 (alanine mutant at position 2 of the HER3P1 binding sequence)], the “decrease of binding against parent (HER3P1) phage” value (shortened to “decrease of binding against parent”) in assay [3] was at least 50%.

For CLPTKFASC (peptide, not shown: large carriers) [phage M6 (alanine mutant at position 7 of the HER3P1 binding sequence)], the “decrease of binding against parent” value in assay [3] is at least 50%.

As to CLATKFRSC (peptide, not shown: large carriers) [phage M2 (alanine mutant at position 3 of the HER3P1 binding sequence)], the “decrease of binding against parent” value in assay [3] is at least 50%.

Regarding CLPTKFRAC (peptide, not shown: large carriers) [phage M7 (alanine mutant at position 8 of the HER3P1 binding sequence)], the “decrease of binding against parent” value in assay [3] was at least 50%.

On to CLPAKFRSC (peptide, not shown: large carriers) [phage M3 (alanine mutant at position 4 of the HER3P1 binding sequence)], for which the “decrease of binding against parent” value in assay [3] is at least 50%.

B1: HER3P1 (biotin-conjugated, N-terminal tri-glycine linker) (peptide)
peptide: Biotin-GGGCLPTKFRSC
modifications: disulfide 4-12 (inferred); not fully specified
notes: The formulas of the description print a beta A before G-G-G; also called HER3 peptide; the peptide
For B1, the absorbance (405 nm) was 0.15 absorbance in assay [4], 0.21 absorbance in assay [5], 0.22 absorbance in assay [6] and 0.82 absorbance in assay [7].
